{
  "source": "paper doi:10.1101/2022.09.15.508077",
  "about": "(bioRxiv, 2022)",
  "key": {"[1]": {"target": "T1, UFL1 27-200 (the UFL1 piece of the fusion DDRGK1-UFL1ΔN) (UniProt O94874 27-200)", "T1 sequence": "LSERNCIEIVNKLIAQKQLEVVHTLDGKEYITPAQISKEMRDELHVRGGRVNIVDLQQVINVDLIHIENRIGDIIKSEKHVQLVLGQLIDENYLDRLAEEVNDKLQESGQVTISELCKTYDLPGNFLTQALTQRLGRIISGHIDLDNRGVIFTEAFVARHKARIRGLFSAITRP", "test": "crystal structure"}, "UFC1 [2]": {"target": "T2, UFC1 (UniProt Q9Y3C8 1-167)", "T2 sequence": "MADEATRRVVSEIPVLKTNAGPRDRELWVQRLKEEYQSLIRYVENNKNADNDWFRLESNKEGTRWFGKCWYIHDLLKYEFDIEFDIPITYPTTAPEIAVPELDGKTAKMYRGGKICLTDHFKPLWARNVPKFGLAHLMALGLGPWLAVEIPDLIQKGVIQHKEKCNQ", "test": "NMR titration"}, "UFC1 [3]": {"target": "T2, UFC1", "test": "ITC"}},
  "data": [
    {"binder": "DDRGK1 207-305 (the DDRGK1 piece of the fusion DDRGK1-UFL1ΔN) (domain or fragment) MTEEQSQSFLTEFINYIKQSKVVLLEDLASQVGLRTQDTINRIQDLLAEGTITGVIDDRGKFIYITPEELAAVANFIRQRGRVSIAELAQASNSLIAWG", "values": [
      {"measurement": "binding result", "setting": "[1]", "result": "binds"}
    ]},
    {"binder": "UBA5 C-terminus (UBA5 347-404) (domain or fragment) SEVSEEELKNFSGPVPDLPEGITVAYTIPKKQEDSVTELTVEDSGESLEDLMAKMKNM", "values": [
      {"measurement": "binding result", "setting": "UFC1 [2]", "result": "binds"}
    ]},
    {"binder": "DDRGK1_(207-314)-UFL1_(1-200) fusion protein (other) MTEEQSQSFLTEFINYIKQSKVVLLEDLASQVGLRTQDTINRIQDLLAEGTITGVIDDRGKFIYITPEELAAVANFIRQRGRVSIAELAQASNSLIAWGRESPAQAPAMADAWEEIRRLAADFQRAQFAEATQRLSERNCIEIVNKLIAQKQLEVVHTLDGKEYITPAQISKEMRDELHVRGGRVNIVDLQQVINVDLIHIENRIGDIIKSEKHVQLVLGQLIDENYLDRLAEEVNDKLQESGQVTISELCKTYDLPGNFLTQALTQRLGRIISGHIDLDNRGVIFTEAFVARHKARIRGLFSAITRP", "values": [
      {"measurement": "Kd", "setting": "UFC1 [3]", "result": 2.4, "unit": "µM"}
    ]}
  ]
}
